Results: patent US20050054833A1 (published 2005)
Values belong to the binder of their own block, whether it stands above or below them.

How the values were obtained:
[1] = target: T1, human CD23 (low affinity receptor for IgE, FceRII/CD23) on 8866 cells (human, UniProt P06734 1-321); assay: cell ELISA on 8866 cells
T1 construct: whole, on cells; Target of the first step cell ELISA (glutaraldehyde-fixed 8866 cells); also called cellular CD23; FCEL
T1 sequence (looked up): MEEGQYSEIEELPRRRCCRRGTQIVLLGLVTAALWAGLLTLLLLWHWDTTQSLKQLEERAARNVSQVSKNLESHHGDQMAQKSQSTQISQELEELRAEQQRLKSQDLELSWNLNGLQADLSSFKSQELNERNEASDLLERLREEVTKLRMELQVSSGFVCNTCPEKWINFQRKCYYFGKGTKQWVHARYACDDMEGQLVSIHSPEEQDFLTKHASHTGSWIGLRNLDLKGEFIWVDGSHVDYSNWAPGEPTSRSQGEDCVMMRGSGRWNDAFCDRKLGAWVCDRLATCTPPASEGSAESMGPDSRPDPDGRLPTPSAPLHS

[2] = target: T1, human CD23 (low affinity receptor for …); assay: cell ELISA on fixed 8866 cells, hybridoma supernatant
Experimental: The first step of the ELISA comprised the transferral of fifty microliters of supernatant from each well to ninety-six well plates which had previously been coated with 10⁵ 8866 cells (CD23 positive cell line) per well. These plates were made by first coating the plates with 50 μl of aqueous solution containing twenty μg/ml Poly L-Lysine (Sigma Catalog #P1399, MW 150,000-300,000) for thirty minutes at room temperature. The remaining solution was removed (“flicked out”) and the plates left to dry. Once dry, fifty μl of 8866 cells in PBS were transferred and spun at 600 g for five minutes. The 8866 cells were covalently bound to the plate by adding fifty μl 0.5% glutaraldehyde (Sigma Catalog #G6257) in phosphate buffered saline (PBS) for 15 minutes. The glutaraldehyde was removed (flicked out) and the plates blocked with one hundred fifty μl 100 mM glycine (Sigma Catalog #G-2879) in 0.1% BSA-PBS. […] The presence of the HRPO was detected by a color development after the addition of a TMB reagent (Kirkegaard & Perry, Gaithersburg, Md., Catalog #50-76-02 and 50-65-02), 100 μl/well. […] Optical density (OD) was measured at […] on a spectrophotometer (Titertek Multiscan). The OD values greater than two times the background were scored as positive.

- binding result [1]: binds
B1: primate anti-human CD23 monoclonal antibody 5E8 (antibody, V domains shown)
VH: EVQLVESGGGLAKPGGSLRLSCAASGFRFTFNNYYMDWVRQAPGQGLEWVSRISSSGDPTWYADSVKGRFTISRENANNTLFLQMNSLRAEDTAVYYCASLTTGSDSWGQGVLVTVSS
VL: DIQMTQSPSSLSASVGDRVTITCRASQDIRYYLNWYQQKPGKAPKLLIYVASSLQSGVPSRFSGSGSGTEFTLTVSSLQPEDFATYYCLQVYSTPRTFGQGTKVEIK
modifications: N-linked oligosaccharide at the asparagine of the heavy chain variable region glycosylation site (Kabat 75)
notes: Monoclonal antibody from a cynomolgus macaque heterohybridoma; also called primate 5E8

- binding result [2]: binds
B2: primate anti-human CD23 monoclonal antibody 6G5 (antibody, V domains shown)
VH: QLQLQESGPGVVKPSETLSLTCAVSGGSVSSSNWWTWIRQPPGKGLEWIGRISGSGGATNYNPSLKSRVIISQDTSKNQFSLNLNSVTAADTAVYYCARDWAQIAGTTLGFWGQGVLVTVSS
VL: QSAPTQPPSVSGSPGQSVTISCTGTSDDVGGYNYVSWYQHHPGKAPKLMIYDVAKRASGVSDRFSGSKSGNTASLTISGLQAEDEADYYCCSYTTSSTLLFGRGTRLTVLG
notes: Monoclonal antibody from a cynomolgus macaque heterohybridoma; also called primate 6G5
